Molecular target: T1, Glu225Ala mutant RANKL (UniProt O35235 139-316, Glu225Ala)
T1 sequence (looked up): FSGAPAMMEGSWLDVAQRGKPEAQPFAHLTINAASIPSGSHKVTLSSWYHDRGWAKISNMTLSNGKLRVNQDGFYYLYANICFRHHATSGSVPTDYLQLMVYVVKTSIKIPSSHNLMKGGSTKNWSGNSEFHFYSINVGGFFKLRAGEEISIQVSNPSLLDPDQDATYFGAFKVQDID
Test: SPR

B1: Recombinant soluble RANK (receptor activator of nuclear factor κ-B) (receptor, murine, UniProt O35305 31-214, looked up)
chain: VTPPCTQERHYEHLGRCCSRCEPGKYLSSKCTPTSDSVCLPCGPDEYLDTWNEEDKCLLHKVCDAGKALVAVDPGNHTAPRRCACTAGYHWNSDCECCRRNTECAPGFGAQHPLQLNKDTVCTPCLLGFFSDVFSSTDKCKPWTNCTLLGKLEAHQGTTESDVVCSSSMTLRRPPKEAQAYLPS
fold decrease of binding affinity against wild-type RANKL: 100 fold

— publication PMC5646979 (Molecular Medicine Reports, 2017)
